In US20200087394A1:

Molecular target: CD16 receptor on Jurkat-hCD16aF cells (human) (UniProt P08637)
Experiment: cell-based or functional assay

CD16 receptor on Jurkat-hCD16aF cells (human), sequence (P08637 17-254): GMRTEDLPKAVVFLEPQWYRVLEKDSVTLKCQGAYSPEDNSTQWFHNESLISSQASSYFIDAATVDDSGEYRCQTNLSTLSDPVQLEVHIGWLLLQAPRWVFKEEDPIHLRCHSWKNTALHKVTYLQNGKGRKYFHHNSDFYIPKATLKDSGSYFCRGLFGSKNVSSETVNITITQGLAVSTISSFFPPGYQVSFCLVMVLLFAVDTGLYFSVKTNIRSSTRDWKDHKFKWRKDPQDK

quantity of antibody required to induce 1000 pg of IL-2 from Jurkat-hCD16aF cells with PD-L1 aAPC/CHO-K1 target cells (ng per 1000 pg of IL-2)	Substance
> 1250	Anti-PDL1|durvalumab|Fc-WT (CHOs) (from UniProt P01857 1-330) (antibody)
> 1250	Anti-PDL1|atezolizumab|Fc-WT (CHOs) (from UniProt P01857 1-330) (antibody)
